Measured values: paper PMC10172142

What was measured:
[1] = molecular target: CPR Wolfebacteria Fe-SodFM1, wild type (CPR Wolfebacteria (uncultured bacterial candidate phyla radiation)); assay: crystal structure; sitting drop vapour diffusion at 20 °C; 100 mM sodium acetate trihydrate pH 4.5, 25% wt/vol polyethylene glycol 3350; data collected at 100 K
[2] = molecular target: CPR Wolfebacteria Fe-SodFM1, wild type (CPR Wolfebacteria (uncultured bacterial candidate phyla radiation)); assay: SEC; analytical size exclusion chromatography, Superdex 200 10/300 increase, 20 mM Tris pH 7.5, 150 mM NaCl, calibrated with molecular weight standards

**Q.** With “CPR Wolfebacteria Fe-SodFM1, wild type (enzyme)” as the substance, how does the stoichiometry N [1] read?
**A.** 2

**Q.** And the stoichiometry N [2]?
**A.** 2
